Measurements taken from patent publication US20110229406A1.

Biological target: HER-3 (human, on cells) (human) (UniProt P21860)
Experiment: indirect FACS Scatchard analysis on cells

U1-46 (antibody)
Kd: 13.8 nM
